Experimental findings from US20110244493A1 (COMMONWEALTH MEDICAL COLLEGE, published 2011) are described below.

This experiment concerns the target T1, cytoskeletal associated protein 4 (CKAP4), endogenous in HeLa or normal bladder epithelial cells (Homo sapiens, UniProt Q07065 1-602, reversibly palmitoylated on cysteine 100).
T1 sequence: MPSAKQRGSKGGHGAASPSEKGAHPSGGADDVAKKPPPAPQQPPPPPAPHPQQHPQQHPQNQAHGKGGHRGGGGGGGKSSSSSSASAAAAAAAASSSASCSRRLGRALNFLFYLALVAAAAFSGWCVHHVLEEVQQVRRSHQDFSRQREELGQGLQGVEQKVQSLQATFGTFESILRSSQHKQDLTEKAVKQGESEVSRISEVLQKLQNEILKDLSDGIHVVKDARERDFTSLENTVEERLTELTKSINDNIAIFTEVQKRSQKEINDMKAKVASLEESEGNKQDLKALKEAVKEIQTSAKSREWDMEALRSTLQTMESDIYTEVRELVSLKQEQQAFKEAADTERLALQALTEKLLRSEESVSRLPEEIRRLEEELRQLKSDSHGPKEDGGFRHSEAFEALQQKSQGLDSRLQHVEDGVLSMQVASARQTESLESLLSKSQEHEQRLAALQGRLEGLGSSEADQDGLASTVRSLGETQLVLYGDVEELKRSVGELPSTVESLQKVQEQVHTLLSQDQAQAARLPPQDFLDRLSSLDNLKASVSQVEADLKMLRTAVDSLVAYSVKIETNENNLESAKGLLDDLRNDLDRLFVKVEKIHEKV
Briefly: cell-based or functional assay.

B1: antiproliferative factor (APF), synthetic (peptide)
peptide: TVPAAVVVA
modifications: sialic acid α-2,3 linked to galactose P1-3-N-acetylgalactosamine, which is α-O-linked to the N-terminal threonine residue of the nonapeptide (printed as '3 carbohydrate moieties-T-V-P-A-A-V-V-V-A')
In the case of B1, the “abundance of CKAP4 in the nucleus (nuclear fractionation and Western blot, HeLa cells)” value amounted to 5 fold.
